Source: article PMC12571865, “Profiling of HIV-1 elite neutralizer cohort reveals a CD4bs bnAb for HIV-1 prevention and therapy” (Nature immunology, 2025)

Target: T1, BG505 SOSIP.664 Env trimer (preparation for cryo-EM) (HIV-1 (strain BG505), UniProt Q2N0S6)
T1 construct: also called BG505_(SOSIP) trimer; source: Expi293F, transient co-transfection with a furin-encoding plasmid; copies: 3 + 3
Assay: cryo-EM structure; Fab–trimer complexes in TBS, incubated overnight at room temperature: 04_A06–PGDM1400–BG505 at 3.6:1.2:1 (Fab:Fab:trimer), purified on Superose-6 Increase; 01_D03–BG505 and 05_B08–BG505 at 3.6:1 (Fab:trimer) without further SEC
Conditions: both partners purified

B1: PGDM1400 Fab (Fab, V domains shown)
VH: QAQLVQSGPEVRKPGTSVKVSCKAPGNTLKTYDLHWVRSVPGQGLQWMGWISHEGDKKVIVERFKAKVTIDWDRSTNTAYLQLSGLTSGDTAVYYCAKGSKHRLRDYALYDDDGALNWAVDVDYLSNLEFWGQGTAVTVSS
VL: DFVLTQSPHSLSVTPGESASISCKSSHSLIHGDRNNYLAWYVQKPGRSPQLLIYLASSRASGVPDRFSGSGSDKDFTLKISRVETEDVGTYYCMQGRESPWTFGQGTKVDIK
For B1, the “stoichiometry N” value was 1 Fab per trimer.
